{"source": "patent US20170079251", "test_in_all_cases": "cell_activity", "key": {"[1]": {"test_system": "btPRLR 9.12 TALEN left (synthetic)", "conditions": "pair value, bovine fibroblasts; also active in zygotes (Table VI)"}, "[2]": {"test_system": "btPRLR 9.8 TALEN right (synthetic)", "conditions": "pair value, bovine fibroblasts; also active in zygotes (Table VI)"}, "[3]": {"test_system": "btPRLR 9.11 TALEN left (synthetic)", "conditions": "pair inactive, bovine fibroblasts"}, "[4]": {"test_system": "btPRLR 9.11 TALEN right (synthetic)", "conditions": "pair inactive, bovine fibroblasts"}, "[5]": {"test_system": "btPRLR 9.3 TALEN left (synthetic)", "conditions": "pair inactive, bovine fibroblasts"}, "[6]": {"test_system": "btPRLR 9.14 TALEN left (synthetic)", "conditions": "pair inactive, bovine fibroblasts"}, "[7]": {"test_system": "btPRLR 9.13 TALEN right (synthetic)", "conditions": "pair value, bovine fibroblasts"}, "[8]": {"test_system": "btPRLR 9.10 TALEN left (synthetic)", "conditions": "pair inactive, bovine fibroblasts"}, "[9]": {"test_system": "btPRLR 9.8 TALEN left (synthetic)", "conditions": "pair value, bovine fibroblasts; also active in zygotes (Table VI)"}, "[10]": {"test_system": "btPRLR 9.10 TALEN right (synthetic)", "conditions": "pair inactive, bovine fibroblasts"}, "[11]": {"test_system": "btPRLR 9.9 TALEN right (synthetic)", "conditions": "pair inactive, bovine fibroblasts"}, "[12]": {"test_system": "btPRLR 9.6 TALEN right (synthetic)", "conditions": "pair inactive; one RVD printed as N, read as NN"}, "[13]": {"test_system": "btPRLR 9.1 TALEN right (synthetic)", "conditions": "pair value, bovine fibroblasts, TALEN mRNA"}, "[14]": {"test_system": "btPRLR 9.3 TALEN right (synthetic)", "conditions": "pair inactive, bovine fibroblasts"}, "[15]": {"test_system": "btPRLR 9.14 TALEN right (synthetic)", "conditions": "pair inactive, bovine fibroblasts"}, "[16]": {"test_system": "btPRLR 9.7 TALEN right (synthetic)", "conditions": "pair inactive; printed RVDs read the sense strand"}, "[17]": {"test_system": "btPRLR 9.9 TALEN left (synthetic)", "conditions": "pair inactive, bovine fibroblasts"}, "[18]": {"test_system": "btPRLR 9.4 TALEN left (synthetic)", "conditions": "pair inactive, but same left RVDs active in 9.5"}, "[19]": {"test_system": "btPRLR 9.2 TALEN right (synthetic)", "conditions": "pair inactive, bovine fibroblasts"}, "[20]": {"test_system": "btPRLR 9.7 TALEN left (synthetic)", "conditions": "pair inactive, bovine fibroblasts"}, "[21]": {"test_system": "btPRLR 9.5 TALEN left (synthetic)", "conditions": "pair value, bovine fibroblasts"}, "[22]": {"test_system": "btPRLR 9.12 TALEN right (synthetic)", "conditions": "pair value, bovine fibroblasts; also active in zygotes (Table VI)"}, "[23]": {"test_system": "btPRLR 9.13 TALEN left (synthetic)", "conditions": "pair value; printed RVDs lack one HD relative to target"}, "[24]": {"test_system": "btPRLR 9.5 TALEN right (synthetic)", "conditions": "pair value, bovine fibroblasts"}, "[25]": {"test_system": "btPRLR 9.1 TALEN left (synthetic)", "conditions": "pair value, bovine fibroblasts, TALEN mRNA"}, "[26]": {"test_system": "btPRLR 9.6 TALEN left (synthetic)", "conditions": "pair inactive, bovine fibroblasts"}, "[27]": {"test_system": "btPRLR 9.2 TALEN left (synthetic)", "conditions": "pair inactive, bovine fibroblasts"}, "[28]": {"test_system": "btPRLR 9.4 TALEN right (synthetic)", "conditions": "pair inactive, bovine fibroblasts"}}, "data": [{"sequence": "TCGCTGGACCAAACAGACCAACATGCTTTAAAAGCCTCAAAAACCATTG (double strand) [9.12 left site]", "values": [{"measurement": "activity", "setting": "[1]", "result": 15.9, "unit": "% Cel-I"}]}, {"sequence": "GTGGCCACGACCCCAAGACAAAACCCCCTTGATCTCTGCTAAACCCTTGG (double strand) [9.8 right site]", "values": [{"measurement": "activity", "setting": "[2]", "result": 10.1, "unit": "% Cel-I"}]}, {"sequence": "CAAAAACCATTGAAACTGGCAGGGAAGGAAAGGCAACCAAGCAGAGGGAGTC (double strand) [9.11 left site]", "values": [{"measurement": "activity", "setting": "[3]", "result": 0, "unit": "% Cel-I"}]}, {"sequence": "CAAAAACCATTGAAACTGGCAGGGAAGGAAAGGCAACCAAGCAGAGGGAGTC (double strand) [9.11 right site]", "values": [{"measurement": "activity", "setting": "[4]", "result": 0, "unit": "% Cel-I"}]}, {"sequence": "GGCCGGCACCACAGCCACTTCGCTGGACCAAACAGACCAACATGCTTTAA (double strand) [9.3 left site]", "values": [{"measurement": "activity", "setting": "[5]", "result": 0, "unit": "% Cel-I"}]}, {"sequence": "CAAAAACCATTGAAACTGGCAGGGAAGGAAAGGCAACCAAGCAGAGGGAGTC (double strand) [9.14 left site]", "values": [{"measurement": "activity", "setting": "[6]", "result": 0, "unit": "% Cel-I"}]}, {"sequence": "AAAAGCCTCAAAAACCATTGAAACTGGCAGGGAAGGAAAGGCAACCAAGCAG (double strand) [9.13 right site]", "values": [{"measurement": "activity", "setting": "[7]", "result": 6.8, "unit": "% Cel-I"}]}, {"sequence": "GGCCACGACCCCAAGACAAAACCCCCTTGATCTCTGCTAAACCCTTGGAAT (double strand) [9.10 left site]", "values": [{"measurement": "activity", "setting": "[8]", "result": 0, "unit": "% Cel-I"}]}, {"sequence": "GTGGCCACGACCCCAAGACAAAACCCCCTTGATCTCTGCTAAACCCTTGG (double strand) [9.8 left site]", "values": [{"measurement": "activity", "setting": "[9]", "result": 10.1, "unit": "% Cel-I"}]}, {"sequence": "GGCCACGACCCCAAGACAAAACCCCCTTGATCTCTGCTAAACCCTTGGAAT (double strand) [9.10 right site]", "values": [{"measurement": "activity", "setting": "[10]", "result": 0, "unit": "% Cel-I"}]}, {"sequence": "CAGAAGGCTGCAGTTCCAAGCCTGACCAAGACACGGTGTGGCCACG (double strand) [9.9 right site]", "values": [{"measurement": "activity", "setting": "[11]", "result": 0, "unit": "% Cel-I"}]}, {"sequence": "GGCCGGCACCACAGCCACTTCGCTGGACCAAACAGACCAACATGCTTT (double strand) [9.6 right site]", "values": [{"measurement": "activity", "setting": "[12]", "result": 0, "unit": "% Cel-I"}]}, {"sequence": "GGCCGGCACCACAGCCACTTCGCTGGACCAAACAGACCAACATGCTTTA (double strand) [9.1 right site]", "values": [{"measurement": "activity", "setting": "[13]", "result": 20.9, "unit": "% Cel-I"}]}, {"sequence": "GGCCGGCACCACAGCCACTTCGCTGGACCAAACAGACCAACATGCTTTAA (double strand) [9.3 right site]", "values": [{"measurement": "activity", "setting": "[14]", "result": 0, "unit": "% Cel-I"}]}, {"sequence": "CAAAAACCATTGAAACTGGCAGGGAAGGAAAGGCAACCAAGCAGAGGGAGTC (double strand) [9.14 right site]", "values": [{"measurement": "activity", "setting": "[15]", "result": 0, "unit": "% Cel-I"}]}, {"sequence": "CAGACCAACATGCTTTAAAAGCCTCAAAAACCATTGAAACTGGCAG (double strand) [9.7 right site]", "values": [{"measurement": "activity", "setting": "[16]", "result": 0, "unit": "% Cel-I"}]}, {"sequence": "CAGAAGGCTGCAGTTCCAAGCCTGACCAAGACACGGTGTGGCCACG (double strand) [9.9 left site]", "values": [{"measurement": "activity", "setting": "[17]", "result": 0, "unit": "% Cel-I"}]}, {"sequence": "GCTTTAAAAGCCTCAAAAACCATTGAAACTGGCAGGGAAGGAAAGGCAACCA (double strand) [9.4 left site]", "values": [{"measurement": "activity", "setting": "[18]", "result": 0, "unit": "% Cel-I"}]}, {"sequence": "GCTTTAAAAGCCTCAAAAACCATTGAAACTGGCAGGGAAGGAAAGGC (double strand) [9.2 right site]", "values": [{"measurement": "activity", "setting": "[19]", "result": 0, "unit": "% Cel-I"}]}, {"sequence": "CAGACCAACATGCTTTAAAAGCCTCAAAAACCATTGAAACTGGCAG (double strand) [9.7 left site]", "values": [{"measurement": "activity", "setting": "[20]", "result": 0, "unit": "% Cel-I"}]}, {"sequence": "GCTTTAAAAGCCTCAAAAACCATTGAAACTGGCAGGGAAGGAAAGGCAACCA (double strand) [9.5 left site]", "values": [{"measurement": "activity", "setting": "[21]", "result": 13.9, "unit": "% Cel-I"}]}, {"sequence": "TCGCTGGACCAAACAGACCAACATGCTTTAAAAGCCTCAAAAACCATTG (double strand) [9.12 right site]", "values": [{"measurement": "activity", "setting": "[22]", "result": 15.9, "unit": "% Cel-I"}]}, {"sequence": "AAAAGCCTCAAAAACCATTGAAACTGGCAGGGAAGGAAAGGCAACCAAGCAG (double strand) [9.13 left site]", "values": [{"measurement": "activity", "setting": "[23]", "result": 6.8, "unit": "% Cel-I"}]}, {"sequence": "GCTTTAAAAGCCTCAAAAACCATTGAAACTGGCAGGGAAGGAAAGGCAACCA (double strand) [9.5 right site]", "values": [{"measurement": "activity", "setting": "[24]", "result": 13.9, "unit": "% Cel-I"}]}, {"sequence": "GGCCGGCACCACAGCCACTTCGCTGGACCAAACAGACCAACATGCTTTA (double strand) [9.1 left site]", "values": [{"measurement": "activity", "setting": "[25]", "result": 20.9, "unit": "% Cel-I"}]}, {"sequence": "GGCCGGCACCACAGCCACTTCGCTGGACCAAACAGACCAACATGCTTT (double strand) [9.6 left site]", "values": [{"measurement": "activity", "setting": "[26]", "result": 0, "unit": "% Cel-I"}]}, {"sequence": "GCTTTAAAAGCCTCAAAAACCATTGAAACTGGCAGGGAAGGAAAGGC (double strand) [9.2 left site]", "values": [{"measurement": "activity", "setting": "[27]", "result": 0, "unit": "% Cel-I"}]}, {"sequence": "GCTTTAAAAGCCTCAAAAACCATTGAAACTGGCAGGGAAGGAAAGGCAACCA (double strand) [9.4 right site]", "values": [{"measurement": "activity", "setting": "[28]", "result": 0, "unit": "% Cel-I"}]}]}
